Test results as given in article PMC5286426, “The Calcium-Dependent Switch Helix of L-Plastin Regulates Actin Bundling” (Scientific Reports, 2017).
Entries after “also recorded” stand apart in the source; their conditions may differ.

Assays:
[1] = cited from earlier work
Excerpt: L-plastin (LPL) is a 70 kDa Ca^2+- and actin-binding protein that plays an important role in both the adaptive and innate immune system. Among the three isoforms found in humans (L-, T-, and I-plastin), LPL is exclusively expressed in cells of hematopoietic origin, where it can act as an actin cross-linker by promoting actin bundling. The actin-bundling activity of LPL is known to be calcium-dependent, where increasing calcium concentrations inhibit the formation of actin-bundles[9][10].

[2] = test system: Human platelet actin (F-actin); experiment: Actin-bundling assay, low-speed centrifugation and SDS-PAGE; type: biochemical; conditions: 6 µM F-actin, n = 3 (Fig. 4a); for Amount of actin found in the pellet: 3 µM LPL construct, pH 7.5, room temperature, 1 h; for Amount of LPL found in the pellet: 3 µM LPL
Method: Human platelet actin (Cytoskeleton) was dissolved in 2 mM Tris pH7.5, 0.2 mM CaCl2, 0.2 mM ATP, and 0.5 mM DTT (Buffer G). The actin was then polymerized overnight at 4 °C in 20 mM Tris pH 7.5, 100 mM KCl, and 1 mM MgCl2. Spontaneously bundled F-actin was removed by centrifugation at 12,000 g for 15 min prior to the assay. F-actin and LPL constructs were incubated at room temperature for 1 h in 50 uL of the buffer containing 20 mM Tris pH7.5, 100 mM KCl, 1 mM MgCl2, 6 µM F-actin, 3 µM LPL construct, 0.1 mM CaCl2, 0.1 mM ATP with and without 5 mM EGTA. LPL induced actin bundles were sedimented by centrifugation at 12,000 g for 15 min and the supernatant was carefully removed. The amount of actin and/or LPL construct in the pellet was analyzed by SDS-PAGE. The effect of the presence of 12 µM melittin peptide on actin-bundling was also examined.

CaM = conditions: CaM-pull down; cited from earlier work
Excerpt: The H5 region of LPL was previously predicted as a potential binding site for CaM[48]. Indeed this sequence produced a high theoretically predicted score for CaM binding. […] Therefore, we have tested the interaction between EF-H5 and CaM in the presence of EDTA. However, ...

actin [3] = conditions: in vitro; cited from earlier work
Excerpt: LPL is comprised of two N-terminal EF-hand motifs (head-piece domain), which are homologous to a single domain of calmodulin (CaM) (34.7% identical), followed by two actin-binding domains (ABDs)[5]. Each ABD consists of two independently folded calponin homology (CH) domains. While many signaling and cytoskeletal proteins share these CH domains, plastins are the only known proteins to have two tandem ABDs[31][32][33]. The four CH domains are each folded into a compact globular shape where the ABD1 and ABD2 are arranged back-to-back[34][35]. Each ABD can bind an actin-filament, thereby LPL ... || In order to further investigate the role of H5 in the Ca^2+-dependent actin-bundling of LPL, we have performed actin-bundling assays with a series of different LPL constructs (Fig. 4).

actin [4] = conditions: compared to the non-phosphorylated LPL protein; cited from earlier work
Excerpt: In addition to the Ca^2+ switch, the targeting of LPL to the actin cytoskeleton is also regulated by the phosphorylation of Ser5[41]. Among all three human plastin isoforms, LPL is the only isoform that is currently known to be phosporylated in vivo[40]. Unlike other actin-binding proteins, where phosphorylation usually occurs in the actin-binding domain, LPL phosphorylation seems to take place on the regulatory Ca^2+-binding domain. […] They hypothesized ...

B1: T-plastin: plastin isoform from solid tissues, such as fibroblasts and epithelial cells (protein, UniProt P13797 1-630, looked up)
Plastin-3: MDEMATTQISKDELDELKEAFAKVDLNSNGFICDYELHELFKEANMPLPGYKVREIIQKLMLDGDRNKDGKISFDEFVYIFQEVKSSDIAKTFRKAINRKEGICALGGTSELSSEGTQHSYSEEEKYAFVNWINKALENDPDCRHVIPMNPNTDDLFKAVGDGIVLCKMINLSVPDTIDERAINKKKLTPFIIQENLNLALNSASAIGCHVVNIGAEDLRAGKPHLVLGLLWQIIKIGLFADIELSRNEALAALLRDGETLEELMKLSPEELLLRWANFHLENSGWQKINNFSADIKDSKAYFHLLNQIAPKGQKEGEPRIDINMSGFNETDDLKRAESMLQQADKLGCRQFVTPADVVSGNPKLNLAFVANLFNKYPALTKPENQDIDWTLLEGETREERTFRNWMNSLGVNPHVNHLYADLQDALVILQLYERIKVPVDWSKVNKPPYPKLGANMKKLENCNYAVELGKHPAKFSLVGIGGQDLNDGNQTLTLALVWQLMRRYTLNVLEDLGDGQKANDDIIVNWVNRTLSEAGKSTSIQSFKDKTISSSLAVVDLIDAIQPGCINYDLVKSGNLTEDDKHNNAKYAVSMARRIGARVYALPEDLVEVKPKMVMTVFACLMGRGMKRV
In the case of B1, the “Sensitivity to intracellular Ca^2+-signals” value [1] is given as “relatively insensitive”.

B2: LPL: 70 kDa Ca^2+- and actin-binding protein, full-length human L-plastin (protein)
chain: MARGSVSDEEMMELREAFAKVDTDGNGYISFNELNDLFKAACLPLPGYRVREITENLMATGDLDQDGRISFDEFIKIFHGLKSTDVAKTFRKAINKKEGICAIGGTSEQSSVGTQHSYSEEEKYAFVNWINKALENDPDCRHVIPMNPNTNDLFNAVGDGIVLCKMINLSVPDTIDERTINKKKLTPFTIQENLNLALNSASAIGCHVVNIGAEDLKEGKPYLVLGLLWQVIKIGLFADIELSRNEALIALLREGESLEDLMKLSPEELLLRWANYHLENAGCNKIGNFSTDIKDSKAYYHLLEQVAPKGDEEGVPAVVIDMSGLREKDDIQRAECMLQQAERLGCRQFVTATDVVRGNPKLNLAFIANLFNRYPALHKPENQDIDWGALEGETREERTFRNWMNSLGVNPRVNHLYSDLSDALVIFQLYEKIKVPVDWNRVNKPPYPKLGGNMKKLENCNYAVELGKNQAKFSLVGIGGQDLNEGNRTLTLALIWQLMRRYTLNILEEIGGGQKVNDDIIVNWVNETLREAKKSSSISSFKDPKISTSLPVLDLIDAIQPGSINYDLLKTENLNDDEKLNNAKYAISMARKIGARVYALPEDLVEVNPKMVMTVFACLMGKGMKRV
modifications: left off: GST, end not stated, cleaved
For B2, the “Amount of actin found in the pellet” value ([2]; in the presence of Ca^2+ (0.1 mM CaCl2)) was ~ 50%, the “Amount of actin found in the pellet” value ([2]; in the presence of EGTA, 5 mM EGTA) was ~ 90% and the “Amount of LPL found in the pellet” value ([2]; with Ca^2+) was ~ 50%. For the same molecule, the “Amount of LPL found in the pellet” value ([2]; with EGTA) was ~ 70%, the “Direct binding to CaM” value (CaM) was “only seen in the absence of Ca^2+” and the “Sensitivity to intracellular Ca^2+-signals” value [1] was “optimal Ca^2+-binding affinity to respond to intracellular Ca^2+-signals”.

B3: ABD1: actin-binding domain 1 of LPL (residues 113–379) (protein, UniProt P13796 113-379, looked up, fragment)
chain: GTQHSYSEEEKYAFVNWINKALENDPDCRHVIPMNPNTNDLFNAVGDGIVLCKMINLSVPDTIDERTINKKKLTPFTIQENLNLALNSASAIGCHVVNIGAEDLKEGKPYLVLGLLWQVIKIGLFADIELSRNEALIALLREGESLEDLMKLSPEELLLRWANYHLENAGCNKIGNFSTDIKDSKAYYHLLEQVAPKGDEEGVPAVVIDMSGLREKDDIQRAECMLQQAERLGCRQFVTATDVVRGNPKLNLAFIANLFNRYPALHK
modifications: actin-binding domain 1
In the case of B3, the “Actin binding of ABD1 relative to ABD2” value (actin [3]) is listed as “an order of magnitude stronger than ABD2; also recorded: ten times stronger than ABD2”.

B4: S5E mutant: LPL S5E mutant of Janji and coworkers (protein, UniProt P13796 2-627, looked up, variant S5E)
Plastin-2: ARGEVSDEEMMELREAFAKVDTDGNGYISFNELNDLFKAACLPLPGYRVREITENLMATGDLDQDGRISFDEFIKIFHGLKSTDVAKTFRKAINKKEGICAIGGTSEQSSVGTQHSYSEEEKYAFVNWINKALENDPDCRHVIPMNPNTNDLFNAVGDGIVLCKMINLSVPDTIDERTINKKKLTPFTIQENLNLALNSASAIGCHVVNIGAEDLKEGKPYLVLGLLWQVIKIGLFADIELSRNEALIALLREGESLEDLMKLSPEELLLRWANYHLENAGCNKIGNFSTDIKDSKAYYHLLEQVAPKGDEEGVPAVVIDMSGLREKDDIQRAECMLQQAERLGCRQFVTATDVVRGNPKLNLAFIANLFNRYPALHKPENQDIDWGALEGETREERTFRNWMNSLGVNPRVNHLYSDLSDALVIFQLYEKIKVPVDWNRVNKPPYPKLGGNMKKLENCNYAVELGKNQAKFSLVGIGGQDLNEGNRTLTLALIWQLMRRYTLNILEEIGGGQKVNDDIIVNWVNETLREAKKSSSISSFKDPKISTSLPVLDLIDAIQPGSINYDLLKTENLNDDEKLNNAKYAISMARKIGARVYALPEDLVEVNPKMVMTVFACLMGKGMKRV
In the case of B4, the Actin bundling activity (actin [4]) is listed as “increased actin bundling activity”.
